According to PMC9709071, “A stable, engineered TL1A ligand co-stimulates T cells via specific binding to DR3” (Scientific Reports, 2022):
Substitutions are numbered along the chain they refer to. Names may count otherwise.

T1: DcR3 (TNFRSF6B) (UniProt O95407 30-300)
T1 construct: soluble decoy receptor DcR3 (TNFRSF6B); the catalogue product is, as I recall, an Fc chimera; the SPR methods name capture by goat anti-human-Fc; also called decoy receptor DcR3; recombinant DcR3 protein
T1 sequence (looked up): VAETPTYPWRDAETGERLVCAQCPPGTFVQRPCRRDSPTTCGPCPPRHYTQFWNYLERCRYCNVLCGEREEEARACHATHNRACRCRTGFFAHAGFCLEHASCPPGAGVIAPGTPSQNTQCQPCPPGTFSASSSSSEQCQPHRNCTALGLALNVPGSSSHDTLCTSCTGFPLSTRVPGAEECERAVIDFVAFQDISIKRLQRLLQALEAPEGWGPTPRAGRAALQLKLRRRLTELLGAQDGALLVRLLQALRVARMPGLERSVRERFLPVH

B1: TL1W328.001 (K111A L123K M158Y Q167A S187L N207F) (Fc fusion, human)
chain: VYAPLRADGDKPRAHLTVVRQTPTQHFANQFPALHWEHEKGLAFTKNRMNYTNKFLLIPESGDYFIYSQVTFRGYTSECSEIRAAGRPNKPDSITVVITKVTDLYPEPTQLLMGTKSVCEVGSFWFQPIYLGAMFSLQEGDKLMVNVSDISLVDYTKEDKTFFGAFLLGGSGGSGGSVYAPLRADGDKPRAHLTVVRQTPTQHFANQFPALHWEHEKGLAFTKNRMNYTNKFLLIPESGDYFIYSQVTFRGYTSECSEIRAAGRPNKPDSITVVITKVTDLYPEPTQLLMGTKSVCEVGSFWFQPIYLGAMFSLQEGDKLMVNVSDISLVDYTKEDKTFFGAFLLGGSGGSGGSVYAPLRADGDKPRAHLTVVRQTPTQHFANQFPALHWEHEKGLAFTKNRMNYTNKFLLIPESGDYFIYSQVTFRGYTSECSEIRAAGRPNKPDSITVVITKVTDLYPEPTQLLMGTKSVCEVGSFWFQPIYLGAMFSLQEGDKLMVNVSDISLVDYTKEDKTFFGAFLL
notes: TL1A (TNFSF15), human, residues 84-251; first of three units; linker between TL1A units; second unit; third unit; combination mutant in the Fc-scTL1A format; the mutations are written on each of the three TL1A units; source: Expi293 cells, transfected, purified (mAbSelect SuRe); not shown: Fc (IgG1), N-terminal, kept
B2: TL1W329.001 (K111A L123K M158Y Q167A E190F N207F) (Fc fusion, human)
chain: B1 chain with L104S, E107F, L281S, E284F, L458S, E461F
notes: as for B1
B3: TL1W327.001 (K111A L123K M158Y Q167A S187L E190F) (Fc fusion, human)
chain: B1 chain with E107F, F124N, E284F, F301N, E461F, F478N
notes: TL1A (TNFSF15), human, residues 84-251; first of three units; linker between TL1A units; second unit; third unit; combination mutant in the Fc-scTL1A format; the mutations are written on each of the three TL1A units; also called AKYALF190; source: Expi293 cells, transfected, purified (mAbSelect SuRe); not shown: Fc (IgG1), N-terminal, kept
B4: TL1W331.001 (K111A L123K Q167A S187L E190F N207F) (Fc fusion, human)
chain: B1 chain with Y75M, E107F, Y252M, E284F, Y429M, E461F
notes: TL1A (TNFSF15), human, residues 84-251; first of three units; linker between TL1A units; second unit; third unit; combination mutant in the Fc-scTL1A format; the mutations are written on each of the three TL1A units; also called Fc-scTL1A-AKALFF; Fc-scTL1A AKALFF; source: Expi293 cells, transfected, purified (mAbSelect SuRe); not shown: Fc (IgG1), N-terminal, kept
B5: Recombinant DR3-Fc (Fc fusion, UniProt Q93038 25-199, looked up)
chain: QGGTRSPRCDCAGDFHKKIGLFCCRGCPAGHYLKAPCTEPCGNSTCLVCPQDTFLAWENHHNSECARCQACDEQASQVALENCSAVADTRCGCKPGWFVECQVSQCVSSSPFYCQPCLDCGALHRHTRLLCSRRDTDCGTCLPGFYEHGDGCVSCPTSTLGSCPERCAAVCGWRQ
notes: death receptor 3 (DR3); dimeric MW ~92 kDa as printed; the catalogue product is, as I recall, the human extracellular domain fused to human IgG1 Fc; also called death receptor 3; source: bought: R&D Systems, cat. # 943-D3
B6: His-TL1A (TL1W2) (ligand, human, UniProt O95150 1-251, looked up)
chain: VYAPLRADGDKPRAHLTVVRQTPTQHFKNQFPALHWEHELGLAFTKNRMNYTNKFLLIPESGDYFIYSQVTFRGMTSECSEIRQAGRPNKPDSITVVITKVTDSYPEPTQLLMGTKSVCEVGSNWFQPIYLGAMFSLQEGDKLMVNVSDISLVDYTKEDKTFFGAFLL
notes: TL1A (TNFSF15), human; C-terminal extracellular domain comprising the TNF homology domain; non-covalent trimer; also called wild-type TL1A; source: Expi293 cells, transfected, purified (Ni-NTA, preparative gel filtration)
B7: Fc-TL1A (TL1W3) (Fc fusion, human, UniProt O95150 1-251, looked up)
chain: B6 chain
notes: TL1A (TNFSF15), human; C-terminal extracellular domain comprising the TNF homology domain; 3:2 ratio of Fc:TL1A trimers; also called Fc-TL1A W3; source: Expi293 cells, transfected, purified (mAbSelect SuRe, preparative gel filtration); not shown: Fc (IgG1), N-terminal, kept
B8: HSA-TL1A (TL1W9) (ligand, human, UniProt O95150 1-251, looked up)
chain: B6 chain
notes: TL1A (TNFSF15), human; C-terminal extracellular domain comprising the TNF homology domain; ratio of HSA to TL1A trimer 3:1; source: Expi293 cells, transfected, purified (Ni-NTA, preparative gel filtration); not shown: HSA (human serum albumin), N-terminal, kept

Legend:
[1] = target: B5; test: ELISA; DR3-Fc immobilised non-specifically on Maxisorp plates (overnight, 4 °C), casein block; TL1A added in 3-fold dilutions, overnight 4 °C; bound TL1A detected with polyclonal rabbit anti-human TL1A-biotin and streptavidin-HRP; concentrations normalised to TL1A trimers; triplicate; conditions: both partners purified
[2] = target: B8; test: ELISA; reversed format: TL1A molecules immobilised, DR3 titrated; conditions: both partners purified
[3] = target: B7; test: as above; conditions: both partners purified
[4] = target: B6; test: as above; conditions: both partners purified
[5] = target: the molecule itself; test: SEC; preparative gel filtration after affinity capture, Sepax SRT-C SEC-300, 20 mM sodium phosphate pH 6.8; the main peak is taken as the target oligomer
[6] = target: T1, DcR3 (TNFRSF6B); test: ELISA; TL1A variants on DcR3; who was immobilised is not told for DcR3; triplicate; conditions: both partners purified

B1
EC50 [1]: 8.8 nM

B2
EC50 [1]: 8.7 nM

B3
EC50 [1]: 37.5 nM

B4
EC50 [1]: 9 nM

B5
EC50 [2]: > 4000 nM | EC50 [3]: 2.6 nM | EC50 [4]: 2.5 nM

B6
stoichiometry N [5]: 3 | EC50 [6]: 4.6 nM | EC50 [1]: 26.2 nM

B7
stoichiometry N [5]: 6

B8
stoichiometry N [5]: 3
